Measured values reported in US8357523B2, “Beta-glucosidase variant enzymes and related polynucleotides” (Codexis, Inc., priority 2009, dated 2013).

Experiment: Enzyme stability: residual activity on pNPG after pre-incubation at high temperature and low pH
Type: biochemical
Conditions: residual activity on pNPG at pH 7, 30° C.
Procedure: Residual activity is determined by exposing the enzyme to stress conditions of elevated temperature for a period of time and then determining the β-glucosidase activity. The β-glucosidase activity of the enzyme exposed to stress conditions (“a”) is compared to that of a control in which the enzyme is not exposed to the stress conditions (“b”), and residual activity is equal to the ratio a/b. Exemplary conditions for determining thermostability are provided in Examples 9 and 13. In one embodiment the enzymes are exposed to stress conditions of 50° C. at pH 5.5 or 55° C. at pH 5.0 or 55° C. at pH 5.5, or 65° C. at pH 5.0 for about 1 hour, and assayed at 30° C., pH 7, for about 0.1 hour.
A colorimetric pNPG (p-nitrophenyl-(β-D-glucopyranoside)-based assay was used for measuring β-glucosidase activity. In a total volume of 100 μL, 20 μL clear media supernatant containing β-glucosidase enzyme was added to 4 mM pNPG (Sigma-Aldrich, Inc. St. Louis, Mo.) solution in 50 mM sodium phosphate buffer at pH6.5. The reactions were incubated at pH 6.5, 45° C. for 1 hour. The reaction mixture was quenched with 100 μL of 1M sodium carbonate pH 11 solution. The absorbance of the solution was measured at 405 nm to determine the conversion of pNPG to p-nitrophenol. The release of p-nitrophenol (ε=17,700 M−1 cm−1) was measured at 405 nm to calculate β-glucosidase activity. Detectable β-glucosidase activity was observed under high throughput screening conditions (pH 7, 50° C.).
Four CelA variants and wildtype CelA were characterized to determine their stabilities at high temperature (55° C.) and low pH (pH5.5) using the method of Example 5A. The samples containing various CelA variant enzymes were pre-incubated at pH 5.5, 55° C. for 0-6 hrs. The residual enzyme activity after the thermal challenge was measured using pNPG as substrate at pH 7, 30° C. for 1 hr. […] The mutations listed in the table are indicated relative to SEQ ID NO: 4, the wildtype CelA. These sequences included residues GTS prior to the N-terminus of SEQ ID NO: 4 (prepared as described in Example 1). […]

B1: Variant No. 264 (protein)
chain: SAAIAQEGAAPAAMLHPEKWPRPATQRLIDPAVEKRVDALLKQLSVEEKVGQVIQGDIGTITPEDLRKYPLGSILAGGDSGPNGDDRAPPKEWLDLADAFYRVSLEKRPGHTPIPVLFGIDAVHGHGNIGSATIFPHNIALGMTRDPELLRRIGEVTAEEMAATGIDWTFAPALSVVRDDRWGRTYEGFSEDPEIVASYSAAIVEGVQGKYGSKDFMAPGRAVACAKHFLADGGTDQGRDQGDARISEDELIRIHNAGYPPAIDAGVLTVMASFSSWQGIKHHGHKQLLTDVLKGQMGFNGFIVGDWNAHDQVPGCTKFNCPTSLIAGLDMYMAADSWKQLYENTLAQVKDGTIPMARLDDAVRRILRVKVLAGLFEKPAPKDRPGLPGLETLGSPEHRAVGREAVRKSLVLLKNDKGTLPLSPKARVLVAGDGADNIGKQSGGWTISWQGTGNRNDEFPGATSILGGIRDAVADAGGSVEFDVAGQYKTKPDVAIVVFGEEPYAEFRGDVETLEYQPDQKQDLTLLKKLKDQGIPVVAVFLSGRPMWVNPELNASDAFVAAWLPGTEGGGVADVLFTDKAGKVQHDFAGKLSYSWPRTAAQTTVNRGDADYNPLFAYGYGLTYKDKSKVGTLPEESGVPAEARQN
pre-incubation 10 mins at pH 5.5, 55° C., 1 hr
  % residual activity after 10 mins @ pH 5.5, 55° C.: 95%
pre-incubation 1 hour at pH 5.5, 55° C.
  % residual activity after 1 hour @ pH 5.5, 55° C.: 78%
pre-incubation 6 hours at pH 5.5, 55° C., 1 hr
  % residual activity after 6 hours @ pH 5.5, 55° C.: 11%
